We go through six molecules from patent publication US20090035322A1 (Regeneron, published 2009).

B1: 10E3-17 (antibody, V domains shown)
VH: EVQLVESGGGLVQPGRSLRLSCAASGFTFRDYAMHWVRQVPGKGLEWVSGISWNRGTIGYADSVKGRFTISRDNAKNSLFLQMNSLRADDTALYYCAKDHYYGSGSPYGMDVWGQGTTVTVSS
VL: EIVLTQSPATLALSPGERATLSCRASQSVSKYLAWYQQKPGQAPRLLIYDASKRVTGIPGRLSGSGSGTDFTLTISSLEPEDFALYYCQQSSNWPITFGQGTRVEIK
notes: Fully human IgG, constant region not specified; also called 10E3-17N
B2: 9D4-7 (antibody, V domains shown)
VH: EVQLVESGGGLVQPGRSLRLSCAASGFTFYDYAMHWVRQAPGKGLEWVSGISWNSDTIGYADSVKGRFTISRDNAKNSLYLQMNSLRAEDTALYYCTKDGSYGHFYSGLDVWGQGTTVTVSS
VL: EIVLTQSPATLSLSPGERATLSCRASQSVSSYLAWYQQKPGQAPRLLIYVASNRATGIPARFSGSGSGTDFTLTISSLEPDDFAVYYCQQRYYWPLTFGGGTKVEIK
notes: Fully human IgG, constant region not specified; also called 9D4-7N
B3: 2B7-7 (antibody, V domains shown)
VH: EVQLVESGGGLVQPGRSLRLSCAASGFTFRDYTMHWVRQGPGKGLEWVSGISWNSDYIGYADSVKGRFTISRDNAKNSLYLQMNSLRVEDTALYYCAKLSGTYRDYFYGVDVWGQGTTVTVSS
VL: B2 VL with T20A, S31N, V50D, D81E, Y92S, Y93N, K107R
notes: Fully human IgG, constant region not specified; also called 2B7-7N
B4: 3H7-6 (antibody, V domains shown)
VH: B2 VH with D56G, T57Y, T97A, G100N, H104K, S107Y
VL: EIVMTQSPATLSVSPGERTTLSCRASQSVSSNLAWYLQKPGQAPRLLIYGASTRATGIPARFSGSGSGTEFILTISSLQSEDFAVYYCQQYNNWPITFGQGTRLEIK
notes: Fully human IgG, constant region not specified; also called 3H7-6N
B5: 6B9-4 (antibody, V domains shown)
VH: EEQLVESGGDLVQPGRSLRLSCAASGFTFHDYTMHWVRQAPGKGLEWVSGISWNSGSIGYADSVKGRFTISRDNAKNSLYLQMNSLRIEDTALYYCAKDPSYGSGSYYYYYGMDVWGQGTTVTVSS
VL: B2 VL with A34V, K39R, V50E, P80S, D81E, Y92S, Y93N
notes: Fully human IgG, constant region not specified; also called 6B9-4N
B6: 2C11-4 (antibody, V domains shown)
VH: EVQLVESGGGLVQPGRSLRLSCAASGFTFRDYAMHWVRQGPGKGLEWVSGISWNTDYIGYADSVKGRFTISRDNAKNSLYLQMNSLRPEDTALYYCAKDARYGRDNYYGMDVWGQGTTVTVSS
VL: EIVLTQSPATLSLSPGERATLSCRASQSVSRYLAWYQQKPGQAPRLLIHDASNRATGIPARFSGSGSGTDFTLTITSLEPEDFVVYYCQQRSDWPITFGQGTRLEIK
notes: Fully human IgG, constant region not specified; also called 2C11-4N

Substitutions are numbered along the chain they refer to.

One test deals with T1, mutant human CD20 #6 (Y77F, N166D) (human, UniProt P11836 1-297).
T1 construct: Stably expressed on MG87 cells
T1 chain: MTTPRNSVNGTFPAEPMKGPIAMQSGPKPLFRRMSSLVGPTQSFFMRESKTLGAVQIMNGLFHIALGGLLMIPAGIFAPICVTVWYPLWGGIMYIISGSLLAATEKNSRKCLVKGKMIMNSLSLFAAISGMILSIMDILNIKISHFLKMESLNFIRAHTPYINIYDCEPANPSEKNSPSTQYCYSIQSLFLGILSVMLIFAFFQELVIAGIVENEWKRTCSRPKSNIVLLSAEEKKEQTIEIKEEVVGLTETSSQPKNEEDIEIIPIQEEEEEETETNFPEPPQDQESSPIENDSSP
Description: FACS, mutant-hCD20 MG87 cells; 100%=best antibody. The protocol: (§1) Briefly, approximately 1×10⁶ cells from each stably transfected cell line expressing a mutant human CD20 were collected and incubated with each anti-human antibody, at 10 μg/ml, on ice for 1 hr, followed by incubation with APC-conjugated goat anti-human IgG (Jackson Immunolabs), at 10 μg/ml, on ice for 45 min. For each antibody, binding to each mutant human CD20 was assessed by flow cytometry.
Background: A flow cytometer gives signals particle by particle.
B1: the “Percent of Binding to Mutant Human CD20” value is 1%.
Same read-out and setting: the value for B2 was 0%; that for B3 was 12%.
For the molecule B4, the “Percent of Binding to Mutant Human CD20” value amounted to 0%.
The same measure, in the same setting: the value for B5 was 1%; that for B6 was 1%.

For another test, the target named is T2, mutant human CD20 #1 (Y77F) (human, UniProt P11836 1-297).
T2 construct: Human residues replaced by mouse residues; stably expressed on MG87 cells
T2 sequence: T1 chain with D166N
Description: FACS, mutant-hCD20 MG87 cells; 100%=best antibody. The protocol:
as §1
Consider B1, for which the “Percent of Binding to Mutant Human CD20” value came out at 61%.
Still for that read-out and setting: the value for B2 was 67%; that for B3 was 100%.
The same measure, in the same setting: next, B4: 28%.
Still for that read-out and setting: next, B5: 74%; B6: 35%.

The target of the next test is T3, mutant human CD20 #3 (A170S, P172S) (human, UniProt P11836 1-297).
T3 construct: Stably expressed on MG87 cells
T3 chain: T1 chain with F77Y, D166N, A170S, P172S
Description: FACS, mutant-hCD20 MG87 cells; 100%=best antibody. The method, then:
as §1
As for B1, the “Percent of Binding to Mutant Human CD20” value came to 6%.
On the same count and under the same terms, the value for B2 was 70%.
Still for that read-out and setting: the value for B3 was 87%.
On the same count and under the same terms, the value for B4 was 43%.
For the molecule B5, the “Percent of Binding to Mutant Human CD20” value came out at 64%.
Same read-out and setting: the value for B6 was 11%.

The target in the next test is T4, mutant human CD20 #8 (Y77F, N163D, N166D) (human, UniProt P11836 1-297).
T4 construct: Stably expressed on MG87 cells
T4 chain: T1 chain with N163D
Briefly: FACS, mutant-hCD20 MG87 cells; 100%=best antibody. The method, then:
as §1
With B1, the “Percent of Binding to Mutant Human CD20” value stood at 0%.
Still for that read-out and setting: the value for B2 was 0%.
On the same count and under the same terms, next, B3: 0%.
For the molecule B4, the “Percent of Binding to Mutant Human CD20” value was found to be 0%.
Same read-out and setting: next, B5: 0%; B6: 0%.

The next test deals with T5, mutant human CD20 #2 (N163D) (human, UniProt P11836 1-297).
T5 construct: Stably expressed on MG87 cells
T5 sequence: T1 chain with F77Y, N163D, D166N
Briefly: FACS, mutant-hCD20 MG87 cells; 100%=best antibody. The method, then: as §1
Take B1: the “Percent of Binding to Mutant Human CD20” value turned out to be 1%.
Same read-out and setting: next, B2: 2%; B3: 40%; B4: 1%.
The same measure, in the same setting: next, B5: 3%; B6: 0%.

A further test addresses T6, mutant human CD20 #4 (N166D) (human, UniProt P11836 1-297).
T6 construct: Stably expressed on MG87 cells
T6 sequence: T1 chain with F77Y
Briefly: FACS, mutant-hCD20 MG87 cells; 100%=best antibody. The protocol: as §1
In the case of B1, the “Percent of Binding to Mutant Human CD20” value stood at 1%.
Same read-out and setting: next, B2: 5%; B3: 100%; B4: 4%.
Same read-out and setting: next, B5: 3%; B6: 31%.

The target of a further test is T7, human CD20 (human, UniProt P11836 1-297).
T7 construct: On human CD20-transfected MG87 cells, or endogenous on Daudi, RL and Raji cells; also called hCD20
T7 sequence: T1 chain with F77Y, D166N
Briefly: flow cytometry, hCD20-transfected MG87 cells. The protocol: Briefly, parental MG87 and human CD20-transfected MG87 cells were incubated for 30 min at 4° C. with each of the 15 human antibodies and the two control antibodies, followed by incubation with PE-conjugated anti-human IgG antibody. Binding was assessed by flow cytometry. Fluorescence intensities were compared with binding to the parental cell line and control isotype-matched sample.
For the molecule B1, the “Total Mean Fluorescent Intensity” value was determined as 3070.
On the same count and under the same terms, next, B2: 3160; B3: 3480; B4: 3300.
Same read-out and setting: next, B5: 2930; B6: 2010.

A further test has as its target T7, human CD20. Description: cell-based or functional assay.
Regarding B1, the “ADCC EC50 (pM), Daudi + PBMC” value amounted to 1.2 pM.
The same measure, in the same setting: next, B2: 1.53 pM.
The same measure, in the same setting: the value for B3 was 1.99 pM; that for B4 was 11.1 pM.
Take B5: the “ADCC EC50 (pM), Daudi + PBMC” value is 4.27 pM.
For B6, the “ADCC EC50 (pM), Daudi + PBMC” value was found to be 1.45 pM.
